The text below walks through data of paper PMC11754109 (Nature, 2025).

Data set [1] concerns the target Fe protein NifH2 of Mo-nitrogenase (Azotobacter vinelandii). Kind of data set: SEC-MALS.
The data set “SEC-MALS” concerns the molecule itself. Kind of data set: SEC-MALS. For orientation: In gel filtration, larger molecules generally elute earlier.

The molecule “Fe protein NifH2 of Mo-nitrogenase (natural protein)” registered a stoichiometry N (chains per oligomer) in data set [1] of 2.

B1: FeSII protein (Shethna protein II) of Azotobacter vinelandii (natural protein)
chain: MATIYFSSPLMPHNKKVQAVAGKRSTLLGVAQENGVKIPFECQDGNCGSCLVKITHLDGERIKGMLLTDKERNVLKSVGKLPKSEEERAAVRDLPPTYRLACQTIVTDEDLLVEFTGEPGGA
For the molecule B1, the stoichiometry N (NifH2 dimers per FeSII2 dimer) in data set [1] stood at 1. Further, the stoichiometry N (in general, the number of molecules, sites or subunits per partner or assembly) in “SEC-MALS” came to 2 chains per oligomer.
